{"source": "patent US20230348603A1", "about": "(VERSEAU THERAPEUTICS, published 2023)", "binders": {"B1": {"name": "16G02 mouse/human chimeric IgG4 (S228P) kappa (antibody, V domains shown)", "VH": "QVQLQQSGAELMKPGASVKISCKATGYTFSSYWIEWVKQRPGHGLEWIGEILPGSSTTNYNEKFKGKATFTADTSSNTAYMQLSSLTSEDSAVYYCAREDHFITTARYAMDYWGQGTSVTVSS", "VL": "DIVLTQSPASLAMSVGQKVTMSCKSSQSLLNSSNQKNYLAWYQQKPGQSPKLLLYFASTRESGVPDRFIGSGSGTDFTLTISSVQAEDLADYFCQQHYSNPLTFGAGTKLELKR"}}, "key": {"Human VSIG4-L-Fc [1]": {"molecular_target": "T1, Human VSIG4-L-Fc (human)", "T1 construct": "also called hVSIG4-L-Fc; hVSIG4-L", "experiment": "BLI cross-blocking on hVSIG4-L-Fc, competitor 14C05 first"}, "Human VSIG4-L-Fc [2]": {"molecular_target": "T1, Human VSIG4-L-Fc", "experiment": "ligand competition ELISA (FJB), blocked ligand C3b"}, "Human VSIG4-L-Fc [3]": {"molecular_target": "T1, Human VSIG4-L-Fc", "experiment": "BLI cross-blocking on hVSIG4-L-Fc, competitor 12A12 first"}, "Human VSIG4-L-Fc [4]": {"molecular_target": "T1, Human VSIG4-L-Fc", "experiment": "ligand competition ELISA (FJB), blocked ligand iC3b"}, "[5]": {"molecular_target": "T2, Human VSIG4-L-CHO (human VSIG4 long isoform on CHO-K1 cells) (human, UniProt Q9Y279 20-399)", "T2 construct": "also called hVSIG4-L (flow cytometry)", "T2 sequence": "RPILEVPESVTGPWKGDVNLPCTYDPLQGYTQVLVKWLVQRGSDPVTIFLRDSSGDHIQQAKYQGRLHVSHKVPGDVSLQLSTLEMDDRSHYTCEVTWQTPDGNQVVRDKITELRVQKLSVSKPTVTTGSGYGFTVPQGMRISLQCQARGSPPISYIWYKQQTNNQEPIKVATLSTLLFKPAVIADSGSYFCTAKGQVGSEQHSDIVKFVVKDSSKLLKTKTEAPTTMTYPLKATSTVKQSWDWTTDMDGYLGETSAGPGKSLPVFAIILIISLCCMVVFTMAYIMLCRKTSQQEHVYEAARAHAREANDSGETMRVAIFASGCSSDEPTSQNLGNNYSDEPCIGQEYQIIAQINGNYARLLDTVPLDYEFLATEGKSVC", "experiment": "flow cytometry (FJB), huVSIG4-L CHO-K1 cells"}, "Human VSIG4-L-Fc [6]": {"molecular_target": "T1, Human VSIG4-L-Fc", "experiment": "ligand competition ELISA (FJB), blocked ligand iC3b, 200 nM mAb"}, "Mouse VSIG4-His": {"molecular_target": "T3, Mouse VSIG4-His (mouse)", "T3 construct": "ECD with His tag; also called mVSIG4", "T3 chain": "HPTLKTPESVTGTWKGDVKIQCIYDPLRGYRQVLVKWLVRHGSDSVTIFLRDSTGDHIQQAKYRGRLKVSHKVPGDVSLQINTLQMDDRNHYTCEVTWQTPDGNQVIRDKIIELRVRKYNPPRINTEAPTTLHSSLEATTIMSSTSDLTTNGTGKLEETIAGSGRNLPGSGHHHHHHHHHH", "experiment": "ELISA (FJB), muVSIG4-His"}, "[7]": {"molecular_target": "T2, Human VSIG4-L-CHO (human VSIG4 long …)", "experiment": "flow cytometry (FJB), 200 nM mAb, huVSIG4-L CHO-K1 over parental CHO-K1"}, "Human VSIG4-L-Fc [8]": {"molecular_target": "T1, Human VSIG4-L-Fc", "experiment": "ligand competition ELISA (FJB), blocked ligand C3b, 200 nM mAb"}, "Human VSIG4-L-Fc [9]": {"molecular_target": "T1, Human VSIG4-L-Fc", "experiment": "BLI cross-blocking on hVSIG4-L-Fc, competitor 16G02 first"}, "Human VSIG4-L-His": {"molecular_target": "T4, Human VSIG4-L-His (human, UniProt Q9Y279 20-283)", "T4 construct": "long isoform ECD with His tag; also called hVSIG4-L", "T4 sequence": "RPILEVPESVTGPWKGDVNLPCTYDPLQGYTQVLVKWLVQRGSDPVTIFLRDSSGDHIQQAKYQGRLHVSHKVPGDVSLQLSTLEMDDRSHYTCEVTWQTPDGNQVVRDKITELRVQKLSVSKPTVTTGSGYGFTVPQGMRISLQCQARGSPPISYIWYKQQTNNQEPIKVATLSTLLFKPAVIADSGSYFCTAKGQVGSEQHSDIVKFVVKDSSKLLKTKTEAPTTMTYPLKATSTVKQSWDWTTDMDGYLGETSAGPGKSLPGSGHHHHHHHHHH", "experiment": "SPR (FJB)"}, "[10]": {"molecular_target": "T5, Cynomolgus Monkey VSIG4-L-His (cynomolgus monkey)", "T5 construct": "ECD with His tag; also called cyVSIG4-L; cyno VSIG4-L-His", "T5 chain": "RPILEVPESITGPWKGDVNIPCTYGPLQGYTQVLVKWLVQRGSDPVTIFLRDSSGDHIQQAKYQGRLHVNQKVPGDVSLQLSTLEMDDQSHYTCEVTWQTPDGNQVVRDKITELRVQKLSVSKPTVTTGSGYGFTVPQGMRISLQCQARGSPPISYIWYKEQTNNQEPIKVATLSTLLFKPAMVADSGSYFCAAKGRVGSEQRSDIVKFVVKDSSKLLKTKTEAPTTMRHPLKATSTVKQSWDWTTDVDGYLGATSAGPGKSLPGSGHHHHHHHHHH", "experiment": "SPR (FJB)"}, "[11]": {"molecular_target": "T2, Human VSIG4-L-CHO (human VSIG4 long …)", "experiment": "flow cytometry (FJB), 200 nM mAb, huVSIG4-L CHO-K1 cells"}}, "data": [{"binder": "B1", "values": [{"measurement": "binding signal (nm shift)", "setting": "Human VSIG4-L-Fc [1]", "value": 0.11, "unit": "nm"}, {"measurement": "IC50", "setting": "Human VSIG4-L-Fc [2]", "value": 1.1, "unit": "nM"}, {"measurement": "binding signal (nm shift)", "setting": "Human VSIG4-L-Fc [3]", "value": 0.1, "unit": "nm"}, {"measurement": "IC50", "setting": "Human VSIG4-L-Fc [4]", "value": 1, "unit": "nM"}, {"measurement": "EC50", "setting": "[5]", "value": 5.2, "unit": "nM"}, {"measurement": "% Block iC3b (200 nM mAb)", "setting": "Human VSIG4-L-Fc [6]", "value": 98, "unit": "%"}, {"measurement": "binding result", "setting": "Mouse VSIG4-His", "value": "no binding (tested: 50 nM)"}, {"measurement": "Binding (200 nM) Fold-Over-Parental", "setting": "[7]", "value": 130, "unit": "fold"}, {"measurement": "% Block C3b (200 nM mAb)", "setting": "Human VSIG4-L-Fc [8]", "value": 96, "unit": "%"}, {"measurement": "binding signal (nm shift)", "setting": "Human VSIG4-L-Fc [9]", "value": 0.11, "unit": "nm"}, {"measurement": "Kd", "setting": "Human VSIG4-L-His", "value": 2.5, "unit": "nM"}, {"measurement": "Kd", "setting": "[10]", "value": 1.3, "unit": "nM"}, {"measurement": "Binding (200 nM) MFI", "setting": "[11]", "value": 38100, "unit": "MFI"}]}]}
